Results: publication doi:10.1101/2022.01.24.477625 (bioRxiv, 2022)

Molecular target: SARS-CoV-2 spike protein (FL-GCN4-Avi-His, biotinylated) (SARS-CoV-2, Wuhan-Hu-1, UniProt P0DTC2, stabilised, biotin on the Avi tag)
Assay: BLI

Row | Binder | binding result
1 | CV27 IgG (antibody, V domains shown) VH: QVQLVESGGGVVQPGRSLRLSCAASGFTFSSYAMHWVRQAPGKGLEWVALISYDGSNKYYADSVKGRFTISRDNSKNTLYLQMNSLRAEDTAVYYCARSFGGSYYYGMDVWGQGTTVTVSS VL: QSALTQPASVSGSPGQSITISCTGTSSDVGGYNYVSWYQQHPGKAPKLMIYDVSNRPSGVSNRFSGSKSGNTASLTISGLQAEDEADYYCSSYTSSSTPYVFGTGTKVTVL | binds
2 | CV27 FAb (Fab, V domains shown) VH: QVQLVESGGGVVQPGRSLRLSCAASGFTFSSYAMHWVRQAPGKGLEWVALISYDGSNKYYADSVKGRFTISRDNSKNTLYLQMNSLRAEDTAVYYCARSFGGSYYYGMDVWGQGTTVTVSS VL: QSALTQPASVSGSPGQSITISCTGTSSDVGGYNYVSWYQQHPGKAPKLMIYDVSNRPSGVSNRFSGSKSGNTASLTISGLQAEDEADYYCSSYTSSSTPYVFGTGTKVTVL | binds
